Experimental findings from a protein production outcome set (Wang et al. 2014) are described below.

This series can be described thus: label from the status in PepcDB records.

For “MQDTLPSRREIAPDSTRPPPTHDDVRAQLNRIITSPQFPHIGRSAAFLTYAVEETLAGRADRIKGYSIAVEVFKRSNGFTQDDPVVRIEAGRLRRVLERYYFTAGQHDPIRIDIPKGGYVPTFAWTSPSEDNSDAEDQSLPPEHASSLFPGLRRHIWTVVLGLIVIVGGASALAGLTSIRFSSIWPFATADITESDGPTLVIAPFANLGDGPQAELYTTGLTEELLTALPRFKEIKVFGRETSRSLPPEVETSRIRGELGARFLLAGGVRVSGSRVRVTARLLDTQTDEILWSQTYDDDIGVRDLFTIQSDVANKVATAVAQPYGIMAQADVSNPPPDDLGSYGCTLSFYAYRAELSIERHGEVRNCLESAVARYPSFATAWAMLSIIYLDEDRFRFNRKPISSTPIDRSFQAARRAVQLDPGNTRALQALMTTLFFSQRVSEALQIGERALATNPNDTELLAEFGTRLAMSGEWQRGAALLDRAIALNPAGGGYYRGTRALAAYMLHDDKTAVIEIRQADLQKFPLFHAVAAVIYVDAGMIDDARSEAARFNEMRPDFIPNIVAELKVRNFQPQDRARMIADLRTAGLLVRDEVQATMSLPIDDSKALQPR”, the protein production entry is on record as “failed”.

With “MQEEFMKKNSIIAGLFVFCITTAGIGYTVYNSVYSDRQKHRINETAKLDSAKAPNELKDGEYTASAEGYEGPITVKVVIKEGKIFSVEVLSHNETPEYYEMAKKILQTIVEKNTFNVDSISGATVTSDAIKVAVYKALVQAGAKTSDVAEGLEKENEELRDKEKAKLLAKQSSAVAGKVGFNRNNLKDGTFIGVGRGYNGLIKVSISIKNGVIYDARVISHSDDYPYFTWASSVLNKVISGSTNIDTVSGATVSSRGILNAVKDALRKASNGNNSLDINSPDETEQNIPRQNRREIEQIKKYFKGLKDGVYFGKSNGYYTNSIEVKVTVKDGKIAKIELTKNDDDESYFDNKKAGILGERIISNQSTNIDTISGATTSSKGFINAVVNALEKAVDSNGSDADKYIYSPKTIIANVGETIGLQKIRDALEKLPEDVQINIKNNADTSSEGKTKIVVELIFKDNSKKIVEIPVLVNSKVDGSYKFLSAEEVKNLDKNVNYPDGVYYGDSYGFVSNKPIPVKVTIKNNKIENVELVKEELNRLKGVTSPGNVDDGGIFQEKFYTIIDRIKNMQKFESLIYKFEVLRDATSKVMEEARGKEQTVEVYRAALDKVIGKHNFGKWGLSIDESHLKGERNIHDRIFSLLKVYVKEELGYDGSDYDAVSGATFTATGTATSIKNALLKAKNFDFYDMRVDDSNFKTSYKEGDKLDLKDLKVTIYKKNNQKITVSYSDFGKYGLKVVDEYNKELKDGLVLNKENLGYNVTDGLRLKVVHEESKSFKFLNTILISKSTTKNFEISGIKIKAKDGSEWYDTKGYNTTDFIQNLTVSKEVAEKLNNKEIEFKIIAKDKKSSEEIEIPLRQAQNKTLIADFVSGEYTLDVIEKYKGVLFNNTFRIKTKVEGKIPKAFLYKETPETLIISKGTEITESKIRSVLKNLPDKTDISVLRGVDVNKVNETVLQKLLIKLKFDDGSEKEIEIDVIVKEKVISMADKYVYKPKDLITIKGKEVELSHLKNHLDDLPEGTKIEIIEKANVSEVNETGTLMKVSLEFTDKSTKDISINVVVKDTAPNKAEEFKILYPEIKNEIVNVVVKDPKYGNMKNFAETVKWGAFSDFAINRDLKLKSRSADISRIEVLKEPDRSKLGDQKGKIRLSFNDGSKLELEISVKIVPYPVYKIFRLTSNKTQYRLEDKFNLNDLKVTLFISNKLENESDWDTTGTPVLNIPYSDFYLFGIKVVDLDSKKEIENNSIISTLIKNKKLSVGAYCENLIQKNNYESGKKLVEIFNIKITNIDEWKESKKNIVEIKDEKNSKKADDSNKTGKVMASKKEIKNVDNLDNTSEKNKTIESENTTKDKVQRKDSDSGGKLSDDSSEKQNLKTNEKED”, the protein production result is given as “failed”. For “MQEGQNRKTSSLSILAIAGVEPYQEKPGEEYMNEAQLAHFRRILEAWRNQLRDEVDRTVTHMQDEAANFPDPVDRAAQEEEFSLELRNRDRERKLIKKIEKTLKKVEDEDFGYCESCGVEIGIRRLEARPTADLCIDCKTLAEIREKQMAG”, the protein production result is listed as “not failed”. The same measure for “MQEIISFIVETASAWGYLGIIILMTLESCFIPFPSEVVMIPAGYLAHKGELDITLCILSGTLGSVLGALINYYICFFWGKNFVLKWGKYFGINEVKFAKFEEFFNKHGEFSTFTCRLLPGIRQYISMPAGLVKMKLVNFILFTALGSAIWVAILVFLGYYIGQNEELIKTYLTQILIIIIVFVILASLIYISKSKSLLKRLKFYLLRFVWRF”: “failed”.

Turning to “MQEIMYLAPELVLVATGLVILLTGVFLSPQSKNILGYLATLGTLAAIFLTVKSFGLLTMEGFSVQYTIFSETLSIDALSQFFKLVFLAVALIVSIASIKYTENSDHTEEFYTLVLFATFGMMIVASANDLILLFCAFELASLATFALAGFEKQNARSLEGAMKYFVIGSVSAALMLFGLSFVYGATGTTSIPLIAQNPGLLTGNPIGIVAIVLLTAGFGFKMALVPFHMWAPDTYQGSPSVVSALLAAGSKKMGFVAAFRVFIIALAALQPDWQFMFTLLAVVTMTFGNVVAVAQTSVKRMLAYSSLAQAGYIAMAFAVMTPVALAGGIMYTLAHAFMKAGAFIAAAAVVWMITSEKTGNLDIPDHLDSFRGLGKRMPLAALCMTVFVFALAGIPPTAGFMAKFVLFSSTIQAGMTWLAVIAILNSALSLFYYARLVKYMYFMPPEGKTEKVSIPFPYAAALLVAVAGVLVMGLWPEPFVELAMKAAMVLVPF”, the protein production result was “failed”. Regarding “MQENKKIDENIDDFLKIVVDLNHIQIEVRDEVQAILLLSSLPSRYDGLVETMKYSNSREKLRLNDVMVAARDKEREMSQNNRLIAEGHYARRRPVGKNNNQGNKGKNRSWSKSADGKRVCWICGKEKHFNEQCYKWLERNKPK”, the protein production entry is given as “failed”. Under “MQESWVEGVEDIRMLGSSLRNDSAAAGRACARTRAGPPAESRKKKVQAERRRREGVANAPTRALRFLRARRAWSPRLAAPGPLTLVAEGEEGRNRVPAAKHPCLRTMSPEPAPPEPQGVRSSLEEPSAEPLGQGSAAFLAGDYEVAAELFRSLLAGLAQPERGLCLQLGEALARAGRLPEAIGAFRGAALLGPLQPGELSELASGLARALGLREKRPPVAARPGGCASGTSGPVAPRDLLGCPRCGRLLYKPVTLSSGLTVCKRCVEQVPVRAQARRVNVVLSGLLERCFPAECRLRRLACQARGLQRQQQPEAALLRCQQALDMAPDDSSLLLLRAELYLTMKNYEQALQDADTVCQREPLLTKGHHIKAQILSGLGRNKEVLKEFIYCLALNPECNSAKKETQKVICEVFFSASENEQQNSAPSTQTGPKALCDGQMSPQNPLEEAGGHANADSPKTPSEKPDVPENTNSSVLYFILGLHCEEDKKALEGVIPAAPSGTLKRQLPSDAEDKELDVNTPEKIPKKDADSSPQRNANSLEEEPEFTIDATDFECALCMRLLFEPVTTPCGHTFCLKCLERCLDHAPHCPLCKDKLSELLATRNFNVTVLTEELIFRYLPDELSDRKRVYDEEMSELSHLTRDVPIFVCAMAFPTVPCPLHVFEPRYRLMIRRCMETGTKRFGMCLSAENAGISEYGCMLEIKDVRTFPDGSSVVDAVGISRFRVLSHRHRDGYNTADIEYLEDEKVEGAEFEELTALHESVYQQSVSWFASLQDHMKKQILSHFGSMPDREPEPQSNSSGPAWSWWILAVLPLERKAQLAILGMGSLKERLLAIRRILVIITRKLNSRQEMANNAQRDN” stands “failed”; under “MQETMLDLRTVYECNRCLGCKTLHPQVGIINLENPSLEEDAVKFEFYAVLLIEDCPGGCCCCGRKYYDYSNATMVFLTPGEIFRMSKENTLPDKGYLLAFHPDLLFRTSLKNHIKNYTFFHYRKEEALHLSRRETEKVTCCLSNIEDELHHPIDTHSSIILSRHIELLLDYCTRYYERQFITRENKNKALLENMERLFVEYIASGRLQGGKLPTSGYMAGELDLSVAYFDDLLKFETGKTLEEYLQLKRLDIARHMLLQDGHTPAAVARKLGYPNVQCFSVLFKKITGVAPSDYRLSQN”, “not failed”; under “MQFEVLKRFFPKESLKNCKGALWVHTASIGEFNTFLPILKELKREHRILLTYFSPRAREYLKTKSDFYDCLHPLPLDNPFSVKRFEELSKPKALIVVEREFWPSLIIFTKVPKILVNAYAKGSLIEKILSKKFDLIIMRTQEDVEKFKTFGAKRVFSCGNLKFICQKGKGIKLKGEFIVAGSIHTGEVEIILKAFKEIKKTYSSLKLILVPRHIENAKIFEKKARDFGFKTSFFENLEGDVILVDRFGILKELYPVGKIAIVGGTFVNIGGHNLLEPTCWGIPVIYGPYTHKVNDLKEFLEKEGAGFEVKNETELVTKLTELLSVKKEIKVEEKSREIKGCYLEKLREFLRGL”, “failed”. Under “MQFQIGDMVARKSYQMDVLFRIIGIEQTSKGNSIAILHGDEVRLIADSDFSDLVAVKKDEQMMRKKKDESRMNESLELLRQDYKLLREKQEYYATSQYQHQEHYFHMPGKVLHLDGDEAYLKKCLNVYKKIGVPVYGIHCHEKKMSASIEVLLDKYRPDILVITGHDAYSKQKGGIDDLNAYRHSKHFVETVQTARKKIPHLDQLVIFAGACQSHFESLIRAGANFASSPSRVNIHALDPVYIVAKISFTPFMERINVWEVLRNTLTREKGLGGIETRGVLRIGMPYKSN” stands “not failed”; under “MQFRSIIRIVGLLLALFSVTMLAPALVALLYRDGAGVPFVTTFFVLLFCGAMCWFPNRRHKHELKSRDGFLIVVLFWTVLGSAGSLPFLIADNPNISVTDAFFESFSALTTTGATVIVGLDELPKAILFYRQFLQWFGGMGIIVLAVAILPVLGIGGMQLYRAEIPGPVKDTKMTPRIAETAKALWYIYLSLTIACAVAFWLAGMTPFDAISHSFSTIAIGGFSTHDASMGYFDSYAINLITVVFLLISACNFTLHFAAFASGGVHPKYYWKDPEFRAFIFIQVLLFLVCFLLLLKHHSYTSPYDAFDQALFQTVSISTTAGFTTTGFADWPLFLPVLLLFSSFIGGCAGSTGGGMKVIRILLLTLQGARELKRLVHPRAVYTIKVGGSALPQRVVDAVWGFFSAYALVFVVCMLGLIATGMDELSAFSAVAATLNNLGPGLGEVALHFGDVNDKAKWVLIVSMLFGRLEIFTLLILLTPTFWRS”, “not failed”; under “MQGENAPQRSAEVTILDKQAIDIPHPLPGQDDQEFWIYVQKGRLGPKREFQVGIHYYHALNPGDKGVLTYQGQRFLHFALKRLEHHHHHH”, “not failed”. On to “MQGHHFGGDMSNSEAIDNTTAKLRLAQSSSLLALALLIGSAPAQAADTDWGWLAIGAPAATAQGWTGKGVVIGVVDTGIDFSHPALSGRAFDYNYGSFVAGSNHPHATHVAGIIGATDINRGMEGVAPDVRFSSMKIFTGAGGSYLGDAAVADAYDGAIGSGVRIFNNSWGSSDSIANFTSREELLAHEPLLVGAFTRAVNADAVLVWSTGNDGRSQPSWQAAAPYYIQELKANWIAVTSVGENGTIASYANACGVAKAWCLAAPGGDFNPGIYSTIPGKDYGYMSGTSMAAPYVTGATAIARQMFPKASGAQLAQIVLQTSRDIGAPGIDDVYGWGLLAVDNIVDTINPRGAALFASAAWGRFTTLSAIGNTVLDRISDLRNGRGDVVTAPLAFAGQNGAFSQSGSNPRNAYAADLAAAPQPSPLGFGSVWARGLAGRATLSGSASSPQTTADISGGLLGFDLVNNQNLLVGIAGGGSNTNLTASGISDKAGAQAWHVLGYAAAMYGPAFVNVAGGWNSFDQSYQRRVIPGTAGTVFASTISAAQSSSTDVAYFFQGRGGWTFQTEVGRIEPYVHGATRNQSFGGFSETNASIFSLSVPSASLSEAEYGAGVRWACAPIKTVDQRVAVAPTIDLAYVRFTNDGPIQVETNLLGTSVVGQTAALGADAIRVAAGLSLTSLAGISGSFGYTGTVRDAATAHTVSGGLSIKF”, for which the protein production result was “failed”. “MQIFVNGETIETEVITLNLLLEELGYEGNWLATAVNAEVVPIDARSRCVLHEGDKIEILSPMQGG”: the protein production entry is listed as “failed”.
